± gives the standard error. For some assays here: Fewer inactive variants are shown than the library holds.
B1: glmS ribozyme (parent)
chain: AUAAAAGCGCCAGAACUACAGAAAUGUAGUUGACGAGGAGGAGGUUUAUCGAAUUUUCGGCGGAUGCCUCCAAA

How the values were obtained:
Settings in all cases: with glucosamine-6-phosphate
[1] = variants of: B1; experiment: kcat; higher = faster cleavage; RNA array
How it was run: (§1)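 Using a hybridised Cy3 probe at 37 °C, barcoded ribozyme variants transcribed in situ by E. coli RNA polymerase on sequenced MiSeq chips were monitored across tiles imaged over ~14 h. The flow contained glucosamine-6-phosphate from 40 μM to 10 mM in HEPES/KCl/Mg(OAc)2 buffer. Signals were normalised to baseline and to non-cleaving reference variants before per-tile medians were fit to one- or two-exponential decays to yield kobs. Weighted Michaelis–Menten fits across concentrations gave kcat and KM.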

[2] = variants of: B1; experiment: self-cleavage kobs at 40 uM GlcN6P; higher = faster cleavage; RNA array
How it was run: as §1

[3] = variants of: B1; experiment: self-cleavage kobs at 640 uM GlcN6P; higher = faster cleavage; RNA array
How it was run: as §1

[4] = variants of: B1; experiment: KM; higher = weaker cofactor use; RNA array
How it was run: as §1

[5] = variants of: B1; experiment: self-cleavage kobs at 160 uM GlcN6P; higher = faster cleavage; RNA array
How it was run: as §1

[6] = variants of: B1; experiment: self-cleavage kobs at 2500 uM GlcN6P; higher = faster cleavage; RNA array
How it was run: as §1

[7] = variants of: B1; experiment: self-cleavage kobs at 10000 uM GlcN6P; higher = faster cleavage; RNA array
How it was run: as §1

G41C G66C
kcat [1]: 1.55e-05 ± 2.4e-06 s⁻¹
self-cleavage kobs at 40 uM GlcN6P [2]: < 1e-05 s⁻¹
self-cleavage kobs at 640 uM GlcN6P [3]: < 1e-05 s⁻¹

A42U C67A
kcat [1]: 0.00217 ± 0.00044 s⁻¹
KM [4]: 1400 ± 460 µM
self-cleavage kobs at 40 uM GlcN6P [2]: 7.75e-05 ± 9.8e-06 s⁻¹
self-cleavage kobs at 160 uM GlcN6P [5]: 0.000151 ± 3.4e-05 s⁻¹
self-cleavage kobs at 640 uM GlcN6P [3]: 0.00067 ± 9.7e-05 s⁻¹
self-cleavage kobs at 2500 uM GlcN6P [6]: 0.00183 ± 0.00029 s⁻¹
self-cleavage kobs at 10000 uM GlcN6P [7]: 0.00183 ± 0.00019 s⁻¹

G40U U45A
kcat [1]: 0.0022 ± 0.00057 s⁻¹
KM [4]: 1030 ± 420 µM
self-cleavage kobs at 40 uM GlcN6P [2]: 8.3e-05 ± 1.1e-05 s⁻¹
self-cleavage kobs at 160 uM GlcN6P [5]: 0.000265 ± 4.2e-05 s⁻¹
self-cleavage kobs at 640 uM GlcN6P [3]: 0.00081 ± 0.0001 s⁻¹
self-cleavage kobs at 2500 uM GlcN6P [6]: 0.00235 ± 0.00023 s⁻¹
self-cleavage kobs at 10000 uM GlcN6P [7]: 0.00154 ± 0.00024 s⁻¹

G40C A42U
kcat [1]: 3.99e-05 ± 4.6e-06 s⁻¹
self-cleavage kobs at 2500 uM GlcN6P [6]: 4.68e-05 ± 2.2e-05 s⁻¹
self-cleavage kobs at 10000 uM GlcN6P [7]: 3.64e-05 ± 1.1e-05 s⁻¹

A42U G43U C61A
kcat [1]: 2.03e-05 ± 2.4e-06 s⁻¹

A48G U57C
kcat [1]: 1.23e-05 ± 2.5e-06 s⁻¹

G43A C68A
kcat [1]: 2.1e-05 ± 8.5e-06 s⁻¹

U46A C70U
kcat [1]: 0.004 ± 0.0017 s⁻¹
self-cleavage kobs at 40 uM GlcN6P [2]: 0.000188 ± 3.1e-05 s⁻¹
self-cleavage kobs at 160 uM GlcN6P [5]: 0.000346 ± 5.5e-05 s⁻¹
self-cleavage kobs at 640 uM GlcN6P [3]: 0.00135 ± 0.00019 s⁻¹
self-cleavage kobs at 2500 uM GlcN6P [6]: 0.00206 ± 0.00026 s⁻¹
self-cleavage kobs at 10000 uM GlcN6P [7]: 0.00626 ± 0.00087 s⁻¹

U46A U55A
kcat [1]: 0.00375 ± 0.001 s⁻¹
KM [4]: 2140 ± 820 µM
self-cleavage kobs at 40 uM GlcN6P [2]: 5.91e-05 ± 1.3e-05 s⁻¹
self-cleavage kobs at 160 uM GlcN6P [5]: 0.00063 ± 0.00021 s⁻¹
self-cleavage kobs at 640 uM GlcN6P [3]: 0.00107 ± 0.00026 s⁻¹
self-cleavage kobs at 2500 uM GlcN6P [6]: 0.00221 ± 0.00094 s⁻¹
self-cleavage kobs at 10000 uM GlcN6P [7]: 0.00298 ± 0.00056 s⁻¹

G43C C67G
kcat [1]: 0.000698 ± 0.00015 s⁻¹
KM [4]: 2490 ± 1200 µM
self-cleavage kobs at 640 uM GlcN6P [3]: 0.000186 ± 3.6e-05 s⁻¹
self-cleavage kobs at 2500 uM GlcN6P [6]: 0.000454 ± 0.0001 s⁻¹
self-cleavage kobs at 10000 uM GlcN6P [7]: 0.000541 ± 5.7e-05 s⁻¹

U47G C68A
kcat [1]: 6.42e-05 ± 2.2e-05 s⁻¹
self-cleavage kobs at 160 uM GlcN6P [5]: 4.97e-05 ± 2e-05 s⁻¹
self-cleavage kobs at 640 uM GlcN6P [3]: 0.000121 ± 2.4e-05 s⁻¹
self-cleavage kobs at 2500 uM GlcN6P [6]: 9.07e-05 ± 1.6e-05 s⁻¹
self-cleavage kobs at 10000 uM GlcN6P [7]: 3.58e-05 ± 1.2e-05 s⁻¹

U45G A53U
kcat [1]: 0.00477 ± 0.00059 s⁻¹
KM [4]: 2170 ± 340 µM
self-cleavage kobs at 40 uM GlcN6P [2]: 9.6e-05 ± 1.4e-05 s⁻¹
self-cleavage kobs at 160 uM GlcN6P [5]: 0.000306 ± 5.6e-05 s⁻¹
self-cleavage kobs at 640 uM GlcN6P [3]: 0.000953 ± 0.00022 s⁻¹
self-cleavage kobs at 2500 uM GlcN6P [6]: 0.00274 ± 0.001 s⁻¹
self-cleavage kobs at 10000 uM GlcN6P [7]: 0.004 ± 0.0007 s⁻¹

G44U A64G
kcat [1]: 0.000112 ± 2.4e-05 s⁻¹
self-cleavage kobs at 640 uM GlcN6P [3]: 9.74e-05 ± 4.6e-05 s⁻¹
self-cleavage kobs at 2500 uM GlcN6P [6]: 5.94e-05 ± 1.4e-05 s⁻¹
self-cleavage kobs at 10000 uM GlcN6P [7]: 9.64e-05 ± 1.3e-05 s⁻¹

U45A U65G
kcat [1]: 0.00585 ± 0.001 s⁻¹
KM [4]: 4290 ± 1100 µM
self-cleavage kobs at 40 uM GlcN6P [2]: 5.91e-05 ± 7.9e-06 s⁻¹
self-cleavage kobs at 640 uM GlcN6P [3]: 0.000543 ± 0.00016 s⁻¹
self-cleavage kobs at 2500 uM GlcN6P [6]: 0.00235 ± 0.00063 s⁻¹
self-cleavage kobs at 10000 uM GlcN6P [7]: 0.00411 ± 0.00045 s⁻¹

G44U U46C
kcat [1]: 1.46e-05 ± 1.4e-06 s⁻¹
KM [4]: 5110 ± 1200 µM

U45A U69A
kcat [1]: 0.000153 ± 3.8e-05 s⁻¹
self-cleavage kobs at 40 uM GlcN6P [2]: 5.69e-05 ± 1.3e-05 s⁻¹
self-cleavage kobs at 640 uM GlcN6P [3]: 9.56e-05 ± 2.4e-05 s⁻¹
self-cleavage kobs at 2500 uM GlcN6P [6]: 0.000129 ± 3.7e-05 s⁻¹
self-cleavage kobs at 10000 uM GlcN6P [7]: 0.000167 ± 2.1e-05 s⁻¹

U46G A64C
kcat [1]: 1.9e-05 ± 5.9e-07 s⁻¹
KM [4]: 227 ± 47 µM
self-cleavage kobs at 40 uM GlcN6P [2]: < 1e-05 s⁻¹

A42C C67G
kcat [1]: 8.04e-05 ± 1.5e-05 s⁻¹
self-cleavage kobs at 2500 uM GlcN6P [6]: 6.32e-05 ± 1.4e-05 s⁻¹
self-cleavage kobs at 10000 uM GlcN6P [7]: 6.4e-05 ± 4.6e-06 s⁻¹

A42G C70U
kcat [1]: 0.0228 ± 0.01 s⁻¹
self-cleavage kobs at 40 uM GlcN6P [2]: 0.000696 ± 0.0001 s⁻¹
self-cleavage kobs at 160 uM GlcN6P [5]: 0.00157 ± 0.00029 s⁻¹
self-cleavage kobs at 640 uM GlcN6P [3]: 0.00975 ± 0.0019 s⁻¹
self-cleavage kobs at 2500 uM GlcN6P [6]: 0.0261 ± 0.01 s⁻¹
self-cleavage kobs at 10000 uM GlcN6P [7]: 0.0178 ± 0.0045 s⁻¹

G44C U46A
kcat [1]: 7.73e-05 ± 1.3e-05 s⁻¹
self-cleavage kobs at 40 uM GlcN6P [2]: < 1e-05 s⁻¹
self-cleavage kobs at 2500 uM GlcN6P [6]: 0.000108 ± 2.5e-05 s⁻¹
self-cleavage kobs at 10000 uM GlcN6P [7]: 7.15e-05 ± 9.9e-06 s⁻¹

U47G C61G
kcat [1]: 1.1e-05 ± 2e-06 s⁻¹

U47G C61U
kcat [1]: 2.06e-05 ± 4.9e-06 s⁻¹
self-cleavage kobs at 40 uM GlcN6P [2]: < 1e-05 s⁻¹

A48G C67A
kcat [1]: 7.17e-05 ± 2.1e-06 s⁻¹
self-cleavage kobs at 160 uM GlcN6P [5]: < 1e-05 s⁻¹
self-cleavage kobs at 10000 uM GlcN6P [7]: 3.47e-05 ± 1.2e-05 s⁻¹

A48U U54G C70U
kcat [1]: 0.000549 ± 9.5e-05 s⁻¹
KM [4]: 1760 ± 550 µM
self-cleavage kobs at 640 uM GlcN6P [3]: 0.000139 ± 2.9e-05 s⁻¹
self-cleavage kobs at 2500 uM GlcN6P [6]: 0.000369 ± 9.6e-05 s⁻¹
self-cleavage kobs at 10000 uM GlcN6P [7]: 0.000445 ± 0.00012 s⁻¹

U45C A48C
kcat [1]: < 1e-05 s⁻¹
self-cleavage kobs at 160 uM GlcN6P [5]: < 1e-05 s⁻¹

U46A A53U
kcat [1]: 0.00158 ± 0.00035 s⁻¹
KM [4]: 1520 ± 540 µM
self-cleavage kobs at 40 uM GlcN6P [2]: 5.78e-05 ± 1.1e-05 s⁻¹
self-cleavage kobs at 160 uM GlcN6P [5]: 0.000161 ± 3.2e-05 s⁻¹
self-cleavage kobs at 640 uM GlcN6P [3]: 0.000394 ± 5.6e-05 s⁻¹
self-cleavage kobs at 2500 uM GlcN6P [6]: 0.000952 ± 0.00012 s⁻¹
self-cleavage kobs at 10000 uM GlcN6P [7]: 0.00158 ± 0.00025 s⁻¹

U47G A52U
kcat [1]: 0.000286 ± 1.4e-05 s⁻¹
KM [4]: 1950 ± 180 µM
self-cleavage kobs at 640 uM GlcN6P [3]: 6.99e-05 ± 7.7e-06 s⁻¹
self-cleavage kobs at 2500 uM GlcN6P [6]: 0.000169 ± 2e-05 s⁻¹
self-cleavage kobs at 10000 uM GlcN6P [7]: 0.000234 ± 2.6e-05 s⁻¹

U47C C71U
kcat [1]: 0.00356 ± 0.00095 s⁻¹
KM [4]: 1310 ± 520 µM
self-cleavage kobs at 40 uM GlcN6P [2]: 0.000124 ± 1.4e-05 s⁻¹
self-cleavage kobs at 160 uM GlcN6P [5]: 0.000184 ± 6.7e-05 s⁻¹
self-cleavage kobs at 640 uM GlcN6P [3]: 0.00148 ± 0.0002 s⁻¹
self-cleavage kobs at 2500 uM GlcN6P [6]: 0.00219 ± 0.00045 s⁻¹
self-cleavage kobs at 10000 uM GlcN6P [7]: 0.00312 ± 0.00038 s⁻¹

G41C C68U
kcat [1]: < 1e-05 s⁻¹
self-cleavage kobs at 40 uM GlcN6P [2]: < 1e-05 s⁻¹
self-cleavage kobs at 640 uM GlcN6P [3]: < 1e-05 s⁻¹

G41U U45G
kcat [1]: 0.000293 ± 5.4e-05 s⁻¹
KM [4]: 909 ± 340 µM
self-cleavage kobs at 160 uM GlcN6P [5]: 3.13e-05 ± 1.4e-05 s⁻¹
self-cleavage kobs at 640 uM GlcN6P [3]: 0.000129 ± 1.7e-05 s⁻¹
self-cleavage kobs at 2500 uM GlcN6P [6]: 0.000339 ± 9.1e-05 s⁻¹
self-cleavage kobs at 10000 uM GlcN6P [7]: 0.000243 ± 4.4e-05 s⁻¹

G41A U47G
kcat [1]: 0.00145 ± 0.00012 s⁻¹
KM [4]: 3540 ± 470 µM
self-cleavage kobs at 160 uM GlcN6P [5]: 6.46e-05 ± 2.1e-05 s⁻¹
self-cleavage kobs at 640 uM GlcN6P [3]: 0.00021 ± 4e-05 s⁻¹
self-cleavage kobs at 2500 uM GlcN6P [6]: 0.000656 ± 0.00011 s⁻¹
self-cleavage kobs at 10000 uM GlcN6P [7]: 0.00104 ± 0.00017 s⁻¹

G44C U56A
kcat [1]: 7.55e-05 ± 7.5e-06 s⁻¹
KM [4]: 2860 ± 1100 µM
self-cleavage kobs at 2500 uM GlcN6P [6]: 3.9e-05 ± 1.4e-05 s⁻¹
self-cleavage kobs at 10000 uM GlcN6P [7]: 5.85e-05 ± 6.8e-06 s⁻¹

U47G C50U
kcat [1]: 3.97e-05 ± 1.6e-06 s⁻¹
KM [4]: 433 ± 100 µM
self-cleavage kobs at 2500 uM GlcN6P [6]: 3.64e-05 ± 1.5e-05 s⁻¹
self-cleavage kobs at 10000 uM GlcN6P [7]: 3.69e-05 ± 1.2e-05 s⁻¹

U47A G59A
kcat [1]: 8.22e-05 ± 1.1e-05 s⁻¹
KM [4]: 3740 ± 1100 µM
self-cleavage kobs at 40 uM GlcN6P [2]: < 1e-05 s⁻¹
self-cleavage kobs at 2500 uM GlcN6P [6]: 3.14e-05 ± 1.2e-05 s⁻¹
self-cleavage kobs at 10000 uM GlcN6P [7]: 6.07e-05 ± 1.8e-05 s⁻¹
